According to US20200140562A1 (Innovent, published 2020):

T1: human OX40 on cells (CHO-hOX40, 293HEK-hOX40, Jurkat-hOX40, activated primary CD4+ T cells) (human, UniProt P43489 29-277)
T1 construct: whole, on cells; The cell type is told in each assay; also called CHO-OX40
T1 sequence (looked up): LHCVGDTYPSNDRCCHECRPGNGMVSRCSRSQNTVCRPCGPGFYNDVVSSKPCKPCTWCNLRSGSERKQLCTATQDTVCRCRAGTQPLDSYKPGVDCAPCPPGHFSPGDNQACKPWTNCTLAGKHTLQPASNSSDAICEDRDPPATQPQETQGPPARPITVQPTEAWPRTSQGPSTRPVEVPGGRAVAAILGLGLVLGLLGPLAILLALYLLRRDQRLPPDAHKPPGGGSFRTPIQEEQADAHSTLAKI

T2: mouse OX40Fc (Acro Biosystems) (mouse, UniProt P47741 20-211, limits assumed)
T2 construct: Bought; not shown: Fc
T2 sequence (looked up): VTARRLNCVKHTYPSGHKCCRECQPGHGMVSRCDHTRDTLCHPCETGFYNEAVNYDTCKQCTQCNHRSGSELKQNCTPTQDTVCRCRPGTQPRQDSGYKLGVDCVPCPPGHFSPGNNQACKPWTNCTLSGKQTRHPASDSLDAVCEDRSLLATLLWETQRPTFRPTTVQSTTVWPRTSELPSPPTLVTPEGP


Columns and labels:
[1] = target: T1, human OX40 on cells (CHO-hOX40, …); experiment: flow cytometry, CHO-hOX40, 100 nM
[2] = target: T3, human OX40_Fc (R&D Systems) (human, UniProt P43489 29-216); experiment: BLI, IgG1 on tip, hOX40-Fc 50 nM, avid
T3 construct: Bought

[3] = target: T4, cyno OX40_Fc (Acro Biosystems) (cyno); experiment: BLI, IgG1 on tip, cyno OX40-Fc 100 nM, avid
T4 construct: Bought
Protocol: Sensors with loaded antibodies were exposed to 100 nM OX40 antigens for 5 min, afterwards they were transferred to assay buffer for dissociation of 5 min for off-rate measurement. Kinetics was analysed using the 1:1 binding model.

[4] = target: T2, mouse OX40Fc (Acro Biosystems); experiment: BLI, IgG1 on tip, mouse OX40-Fc in solution
[5] = target: T1, human OX40 on cells (CHO-hOX40, …); experiment: flow cytometry, MFI on CHO-hOX40 over wild-type CHO
[6] = target: T1, human OX40 on cells (CHO-hOX40, …); experiment: cell-based or functional assay
[7] = target: T1, human OX40 on cells (CHO-hOX40, …); experiment: flow cytometry, CHO-hOX40, 25 nM
[8] = target: T1, human OX40 on cells (CHO-hOX40, …); experiment: flow cytometry, CHO-hOX40, 50 nM
[9] = target: T1, human OX40 on cells (CHO-hOX40, …); experiment: flow cytometry, CHO-hOX40, 100 nM; remark: listed apart in the source
[10] = target: T1, human OX40 on cells (CHO-hOX40, …); experiment: flow cytometry, CHO-hOX40, 200 nM
[11] = target: T1, human OX40 on cells (CHO-hOX40, …); experiment: flow cytometry, CHO-hOX40, 12.5 nM
[12] = target: T1, human OX40 on cells (CHO-hOX40, …); experiment: flow cytometry, CHO-hOX40, 6.25 nM
[13] = target: T1, human OX40 on cells (CHO-hOX40, …); experiment: flow cytometry, CHO-hOX40, 3.125 nM
Protocol: (§1) CHO-hOX40 cells (0.2×10⁶ cells) are incubated with the experimental antibody at 100 nM for 30 min in PBS 0.1% BSA on ice. Cells are then washed at least twice, and are incubated with a secondary antibody (PE-labelled, SouthernBiotech, at final concentration of 5 μg/ml) in PBS 0.1% BSA for 30 min on ice (protected from light). Cells are washed at least twice and analysed via flow cytometry. Flow cytometry is performed on a Canto II system (BD Biosciences) and MFIs are calculated accordingly.

[14] = target: T1, human OX40 on cells (CHO-hOX40, …); experiment: flow cytometry, CHO-hOX40, 1.5625 nM
Protocol: as §1

[15] = target: T1, human OX40 on cells (CHO-hOX40, …); experiment: flow cytometry, CHO-hOX40, 0.78125 nM
Protocol: as §1

[16] = target: T1, human OX40 on cells (CHO-hOX40, …); experiment: flow cytometry, CHO-hOX40, 0.390625 nM
Protocol: as §1

[17] = target: T1, human OX40 on cells (CHO-hOX40, …); experiment: flow cytometry, CHO-hOX40, 0.1953125 nM
Protocol: as §1

[18] = target: T1, human OX40 on cells (CHO-hOX40, …); experiment: flow cytometry, CHO-hOX40, 0.09765625 nM
Protocol: as §1

[19] = target: T1, human OX40 on cells (CHO-hOX40, …); experiment: flow cytometry, CHO-hOX40, 0.024414063 nM
[20] = target: T1, human OX40 on cells (CHO-hOX40, …); experiment: flow cytometry, CHO-hOX40, 0.048828125 nM
Protocol: as §1

[21] = target: T1, human OX40 on cells (CHO-hOX40, …); experiment: flow cytometry, CHO-hOX40, IgG2 made in 293HEK
Protocol: as §1

Binder | CHO-OX40 binding intensity (MFI) [1] [MFI] | Kd [2] [nM] | Kd [3] [nM] | binding result [4] | Fold difference [5] [fold] | other results
ADI-25650, IgG1 format (antibody, V domains shown, Made in yeast) VH: QVQLVESGGGVVQPGRSLRLSCAASGFTFSVYNMHWVRQAPGKGLEWVAVIAYDGSAKYYADSVKGRFTISRDNSKNTLYLQMNSLRAEDTAVYYCARGRPWYSETGTSAFDIWGQGTMVTVSS VL: DIQMTQSPSSLSASVGDRVTITCQASQDISNYLNWYQQKPGKAPKLLIYDASNLETGVPSRFSGSGSGTDFTFTISSLQPEDIATYYCQQSDHYPTFGGGTKVEIKR | 252000 | 0.23 | 1.6 | no binding (tested: 100 nM) | 2040 | 
ADI-25651, IgG1 format (antibody, V domains shown, Made in yeast) VH: QVQLVESGGGVVQPGRSLRLSCAASGFTFSSRNMHWVRQAPGKGLEWVAVIAYDGSLKYYADSVKGRFTISRDNSKNTLYLQMNSLRAEDTAVYYCARGRPWYSETGTSAFDIWGQGTMVTVSS VL: DIQMTQSPSSLSASVGDRVTITCQASQDISNYLNWYQQKPGKAPKLLIYDASNLETGVPSRFSGSGSGTDFTFTISSLQPEDIATYYCQQSDHYPTFGGGTKVEIKR | 253000 | 0.268 | 1.37 | no binding (tested: 100 nM) | 2340 | 
ADI-25653, IgG1 format (antibody, V domains shown, Made in yeast) VH: QVQLVESGGGVVQPGRSLRLSCAASGFTFVSYNMHWVRQAPGKGLEWVAVIMYDGSAKYYADSVKGRFTISRDNSKNTLYLQMNSLRAEDTAVYYCARGRPWYSETGTSAFDIWGQGTMVTVSS VL: DIQMTQSPSSLSASVGDRVTITCQASQDISNYLNWYQQKPGKAPKLLIYDASNLETGVPSRFSGSGSGTDFTFTISSLQPEDIATYYCQQSDHYPTFGGGTKVEIKR | 252000 | 0.223 | 1.15 | no binding (tested: 100 nM) | 2320 | 
ADI-25654, IgG1 format (antibody, V domains shown, Made in yeast or CHO cells; also called ADI-25654-g1) VH: QVQLVESGGGVVQPGRSLRLSCAASGFTFRSYDMHWVRQAPGKGLEWVAYIAYDGSNKYYADSVKGRFTISRDNSKNTLYLQMNSLRAEDTAVYYCARGRPWYSETGTSAFDIWGQGTMVTVSS VL: DIQMTQSPSSLSASVGDRVTITCQASQDISNYLNWYQQKPGKAPKLLIYDASNLETGVPSRFSGSGSGTDFTFTISSLQPEDIATYYCQQSDHYPTFGGGTKVEIKR | 252000 | 0.283 | 1.53 | no binding (tested: 100 nM) | 2260 | EC50, NFkB-luciferase reporter in Jurkat-hOX40 mixed with Raji cells [6]: 0.0282 nM
ADI-20051, IgG2 format (antibody, Made in 293HEK cells) heavy: QVQLQQWGAGLLKPSETLSLTCAVYGGSFSGYYWSWIRQPPGKGLEWIGEIDHSGSTNYNPSLKSRVTISVDTSKNQFSLKLSSVTAADTAVYYCARDGGGGYASPFDYWGQGTLVTVSSASTKGPSVFPLAPCSRSTSESTAALGCLVKDYFPEPVTVSWNSGALTSGVHTFPAVLQSSGLYSLSSVVTVPSSNFGTQTYTCNVDHKPSNTKVDKTVERKCCVECPPCPAPPVAGPSVFLFPPKPKDTLMISRTPEVTCVVVDVSHEDPEVQFNWYVDGVEVHNAKTKPREEQFNSTFRVVSVLTVVHQDWLNGKEYKCKVSNKGLPAPIEKTISKTKGQPREPQVYTLPPSREEMTKNQVSLTCLVKGFYPSDIAVEWESNGQPENNYKTTPPMLDSDGSFFLYSKLTVDKSRWQQGNVFSCSVMHEALHNHYTQKSLSLSPG light: not shown |  |  |  |  |  | MFI [7]: 2.33e+06 MFI; MFI [8]: 2.1e+06 MFI; MFI [9]: 2.35e+06 MFI; MFI [10]: 2.51e+06 MFI; MFI [11]: 1.62e+06 MFI; MFI [12]: 1.33e+06 MFI; MFI [13]: 913000 MFI; MFI [14]: 611000 MFI; MFI [15]: 315000 MFI; MFI [16]: 156000 MFI; MFI [17]: 80500 MFI; MFI [18]: 40700 MFI; MFI [19]: 20900 MFI; MFI [20]: 19400 MFI; EC50 [21]: 5.49 nM
ADI-23515, IgG2 format (antibody) heavy: QVQLQESGPGLVKPSQTLSLTCTVSGGSIRSGAYYWSWIRQHPGKGLEWIGYIYYDGQTYYNPSLKSRVTISVDTSKNQFSLKLSSVTAADTAVYYCARDVGYPHYYGMDVWGQGTTVTVSSASTKGPSVFPLAPCSRSTSESTAALGCLVKDYFPEPVTVSWNSGALTSGVHTFPAVLQSSGLYSLSSVVTVPSSNFGTQTYTCNVDHKPSNTKVDKTVERKCCVECPPCPAPPVAGPSVFLFPPKPKDTLMISRTPEVTCVVVDVSHEDPEVQFNWYVDGVEVHNAKTKPREEQFNSTFRVVSVLTVVHQDWLNGKEYKCKVSNKGLPAPIEKTISKTKGQPREPQVYTLPPSREEMTKNQVSLTCLVKGFYPSDIAVEWESNGQPENNYKTTPPMLDSDGSFFLYSKLTVDKSRWQQGNVFSCSVMHEALHNHYTQKSLSLSPG light: EIVLTQSPGTLSLSPGERATLSCRASQSVSSSYLAWYQQKPGQAPRLLIYGASSRATGIPDRFSGSGSGTDFTLTISRLEPEDFAVYYCQQSERSPFTFGGGTKVEIKRTVAAPSVFIFPPSDEQLKSGTASVVCLLNNFYPREAKVQWKVDNALQSGNSQESVTEQDSKDSTYSLSSTLTLSKADYEKHKVYACEVTHQGLSSPVTKSFNRGEC |  |  |  |  |  | EC50, NFkB-luciferase reporter in Jurkat-hOX40 [6]: 0.39 nM
